{"source": "paper PMC6080600", "about": "(Nature structural & molecular biology, 2018)", "biological_target": "the molecule itself", "assay": "cryo-EM structure", "data": [{"protein": "zebrafish RAG1 (recombination-activating gene 1 protein), residues 271-1031, with N-terminal 6xHis-MBP tag (domain or fragment, UniProt O13033 271-1031, looked up) RCQRDHLSTKLIPTEVPADLIRAVTCQVCDHLLSDPVQSPCRHLFCRLCIIRYTHALGPNCPTCNQHLNPSHLIKPAKFFLATLSSLPLLCPSEECSDWVRLDSFREHCLNHYREKESQEEQTPSEQNLDGYLPVNKGGRPRQHLLSLTRRAQKHRLRDLKNQVKTFAEKEEGGDVKSVCLTLFLLALRAGNEHKQADELEAMMQGRGFGLHPAVCLAIRVNTFLSCSQYHKMYRTVKATSGRQIFQPLHTLRNAEKELLPGFHQFEWQPALKNVSTSWDVGIIDGLSGWTVSVDDVPADTISRRFRYDVALVSALKDLEEDIMEGLRERALDDSMCTSGFTVVVKESCDGMGDVSEKHGSGPAVPEKAVRFSFTIMSISIRLEGEDDGITIFQEQKPNSELSCRPLCLMFVDESDHETLTAILGPVVAERKAMMESRLIISVGGLLRSFRFFFRGTGYDEKMVREMEGLEASGSTYICTLCDSTRAEASQNMVLHSITRSHDENLERYEIWRKNPFSESADELRDRVKGVSAKPFMETQPTLDALHCDIGNATEFYKIFQDEIGEVYQKPNPSREERRRWRSTLDKQLRKKMKLKPVMRMNGNYARRLMTREAVEAVCELVPSEERREALLKLMDLYLQMKPVWRSTCPSRDCPDQLCQYSYNSQQFADLLSSMFKYRYDGKITNYLHKTLAHVPEIVERDGSIGAWASEGNESGNKLFRRFRKMNARQSKTFELEDILKHHWLYTSKYLQKFMEAHKNS", "values": [{"measurement": "stoichiometry N", "result": 2}]}]}
